For the experiment, the target named is T1, Ubc9 (Sumo E2 conjugating enzyme), S. cerevisiae (S. cerevisiae, UniProt P50623 1-157).
T1 construct: Ubc9, S. cerevisiae; also called yeast Ubc9; source: cation exchange for crystallography; not shown: GST, N-terminal, cleaved
T1 sequence: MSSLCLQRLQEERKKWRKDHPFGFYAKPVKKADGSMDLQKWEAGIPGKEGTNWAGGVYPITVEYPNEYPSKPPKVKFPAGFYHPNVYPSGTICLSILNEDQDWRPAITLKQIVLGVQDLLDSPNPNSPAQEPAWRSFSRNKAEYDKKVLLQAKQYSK
The experiment can be described thus: crystal structure; 1.1:1 volume:volume mixture of Uba2^ufd at 22 mg/ml and Ubc9 at 27 mg/ml; crystals at 4°C; 20% (w/v) PEG3350, 0.1 M Bis-Tris pH 5.5, 0.2 M Li2SO4; 2.3 Å; two complexes per asymmetric unit. The settings on record: both partners purified.

B1: Uba2 ubiquitin-fold domain (Uba2^ufd), residues 439-563, S. cerevisiae (domain or fragment, UniProt P52488 439-563, looked up)
chain: SKVCRGVIKLSSDCLNKMKLSDFVVLIREKYSYPQDISLLDASNQRLLFDYDFEDLNDRTLSEINLGNGSIILFSDEEGDTMIRKAIELFLDVDDELPCNTCSLPDVEVPLIKANNSPSKNEEEE
notes: Uba2 (Sumo E1 subunit), S. cerevisiae, C-terminal ubiquitin-fold domain, residues 439-563; Expressed from pGEX-4T1; also called yeast Uba2^ufd; not shown: GST, N-terminal, cleaved
Turning to B1, the binding result is “binds”.

The values are drawn from paper PMC3012696, “Crystal Structure of UBA2^ufd-Ubc9: Insights into E1-E2 Interactions in Sumo Pathways” (PLoS ONE, 2010).
